Source: PMC3678129

Substrate: CCn1c(=NN=c2sc3cc(S(=O)(=O)O)ccc3n2CC)sc2cc(S(=O)(=O)O)ccc21
Assay: purified protein
Conditions: H2O2 25 mM (saturating), no added Ca2+, 100 mM Tris-HCl pH 7.0

B1: Euphorbia characias latex peroxidase (ELP) (Euphorbia characias) (protein)
chain: QTKPPIVNGLSWTFYKSSCPKVESIIQKELKKLFKKDVEQAAGLLRLHFHDCFVLGCDGSVLLNGSAGGPSEQSELPNLSLRKQAFKIVNDLRALVHKECGPVVSCSDIVAIAARDSVVLTGGPKYDVPLGRRDGVKFAEVNATFEHLVGPTANVTTILAKLARKGLDTTDAVSLSGGHTIGIGHCTSFTERLYPSQDPTLDKTFANNLKRTCPNVNTENSTFLDLRTPNEFDNRYYVDLMNRQGLFTSDQDLYTDKRTRQIVIDFAVNQTLFYEKFIIGMIKMGQLEVVTGNQGEIRNDCSFRNSDNYLVSVTDEESGSSSELR
In the case of B1, the Km is reported as 550 ± 20 µM, the kcat is reported as 170 ± 11 s⁻¹ and the kcat/Km is reported as 309000 M⁻¹ s⁻¹.
